A short description of series [1]: SEC; ConSOSL.UFO.664 from concentrated 293T.17 supernatant, in PBS, Enrich SEC 650 column; oligomeric state of the gp140. (In gel filtration, larger molecules generally elute earlier.)
The target in series [2] is ConSOSL.UFO.664 gp140 (HIV-1 (group M consensus, ConS)). The series is described as above.

As for ConSOSL.UFO.664 gp140, in series [1], the “share of the trimer peak in the SEC profile” value is on record as “trimer peak ∼54%”. The stoichiometry N (commonly the number of molecules, sites or subunits per partner or assembly) in series [2] came out at 3.

These data come from article PMC6167709.
